The target in assay [1] is mouse Sortilin (mouse, UniProt Q6PHU5 74-825). Briefly: cell-based or functional assay.
Assay [2] deals with human Sortilin (human, UniProt Q99523 78-830). Briefly: cell-based or functional assay.
Assay [3] deals with T1, recombinant human Sortilin (human, UniProt Q99523 78-830).
T1 construct: also called hSort; SORT1
The assay is described as follows: flow cytometry, 10 ug/ml antibody on 293 cells expressing recombinant human Sortilin, PE anti-human secondary.
Procedure: (§1) Cells were harvested, plated at 10⁵/ml in a 96 well plate, washed, and incubated in 100 μl PBS containing 10 μg/ml Mab and 2% FBS for 1 hour in ice. Cells were then washed twice and incubated in 100 μl PBS+2% FBS containing 5 μg/ml PE-conjugated anti-human secondary antibody for 30 minutes in ice. Cells were washed twice in cold PBS and data was acquired on a BD FACS Canto. Data analysis and calculation of MFI values was performed with FlowJo (TreeStar) software version 10.0.7.

Assay [4] concerns the target T2, recombinant mouse Sortilin (mouse, UniProt Q6PHU5 74-825).
T2 construct: also called mSort
The assay is described as follows: flow cytometry, 10 ug/ml antibody on 293 cells expressing recombinant mouse Sortilin, PE anti-human secondary.
Procedure: as §1

B1: anti-Sortilin antibody S-61 (antibody, V domains shown)
VH: QVQLQESGPGLVKPSETLSLTCAVSGYSISSGYYWGWIRQPPGKGLEWIGSIYHSGSTYYNPSLKSRVTISVDTSKNQFSLKLSSVTAADTAVYYCARGSPRFYYGSGSYLDLFDIWGQGTMVTVSS
VL: EIVMTQSPATLSVSPGERATLSCRASQSVSSNLAWYQQKPGQAPRLLIYGASTRATGIPARFSGSGSGTEFTLTISSLQSEDFAVYYCQEYLNYPITFGGGTKVEIK
On to B1, for which the “Percent reduction of Sortilin levels in N2A cells” value (from here on “Percent reduction … in N2A cells”) in assay [1] was 62.7%. The “Percent reduction of Sortilin levels in U251 cells” value (shortened to “Percent reduction … in U251 cells”) in assay [2] is 70.3%.

B2: anti-Sortilin antibody S-83 (antibody, V domains shown)
VH: QLQLQESGPGLVKPSETLSLTCTVSGGSISSSSYYWGWIRQPPGKGLEWIGSIYYSGSTYYNPSLKSRVTISVDTSKNQFSLKLSSVTAADTAVYYCARGSPTWLRDYYMDVWGKGTTVTVSS
VL: EIVLTQSPATLSVSPGERATLSCRASQSVSSNLAWYQQKPGQAPRLLIYGASTRATGIPARFSGSGSGTEFTLTISSLQSEDFAVYYCQQYNAFPPTFGGGTKVEIK
notes: Tested as full IgG made in yeast
As to B2, the MFI binding in assay [3] worked out at 9300 MFI.

B3: anti-Sortilin antibody S-6 (antibody, V domains shown)
VH: not shown
VL: EIVMTQSPATLSVSPGERATLSCRASQSVSSNLAWYQQKPGQAPRLLIYGASTRATGIPARFSGSGSGTEFTLTISSLQSEDFAVYYCQQVANYPRTFGGGTKVEIK
As for B3, the “Percent reduction … in N2A cells” value in assay [1] worked out at 45.1%. The “Percent reduction … in U251 cells” value in assay [2] is 42.5%.

B4: anti-Sortilin antibody S-69 (antibody, V domains shown)
VH: QVQLQESGPGLVKPSQTLSLTCTVSGGSISSGGYYWSWIRQHPGKGLEWIGYIYYSGSTYYNPSLKSRVTISVDTSKNQFSLKLSSVTAADTAVYYCARDRGGTHFGADHYYYGMDVWGQGTMVTVSS
VL: EIVMTQSPATLSVSPGERATLSCRASQSVSSSLAWYQQKPGQAPRLLIYGASTRATGIPARFSGSGSGTEFTLTISSLQSEDFAVYYCQQAADWPITFGGGTKVEIK
notes: as for B2
B4: the MFI binding came to 1890 MFI in assay [4] and 8580 MFI in assay [3].

B5: anti-Sortilin antibody S-21 (antibody, V domains shown)
VH: QVQLVQSGAEVKKPGSSVKVSCKASGGTFSSYAISWVRQAPGQGLEWMGSIIPIFGTANYAQKFQGRVTITADESTSTAYMELSSLRSEDTAVYYCARERRYDGYYYYYGMDVWGQGTTVTVSS
VL: DIQMTQSPSSLSASVGDRVTITCRASQSISSYLNWYQQKPGKAPKLLIYAASSLQSGVPSRFSGSGSGTDFTLTISSLQPEDFATYYCQQKASLPFTFGGGTKVEIK
Regarding B5, the “Percent reduction … in N2A cells” value in assay [1] stood at 71.9%. Also, in assay [2], the “Percent reduction … in U251 cells” value worked out at 78.7%.

B6: anti-Sortilin antibody S-19 (antibody, V domains shown)
VH: QVQLVQSGAEVKKPGSSVKVSCKASGGTFSSYAISWVRQAPGQGLEWMGGIIPIFGTASYAQKFQGRVTITADESTSTAYMELSSLRSEDTAVYYCARESRIPGSGYYYYYGMDVWGQGTTVTVSS
VL: DIQMTQSPSSLSASVGDRVTITCRASQSISSYLNWYQQKPGKAPKLLIYSASSLQSGVPSRFSGSGSGTDFTLTISSLQPEDFATYYCQQTDGKPPTFGGGTKVEIK
On to B6, for which the “Percent reduction … in N2A cells” value in assay [1] was determined as 86.5%. The “Percent reduction … in U251 cells” value in assay [2] was determined as 93.4%.

B7: anti-Sortilin antibody S-76 (antibody, V domains shown)
VH: QVQLQESGPGLVKPSQTLSLTCTVSGGSISSGGYYWSWIRQHPGKGLEWIGSIYYSGSTYYNPSLKSRVTISVDTSKNQFSLKLSSVTAADTAVYYCARGVGIQQQLVLGFDPWGQGTLVTVSS
VL: DIQMTQSPSSLSASVGDRVTITCRASQSISSFLNWYQQKPGKAPKLLISAASSLQSGVPSRFSGSGSGTDFTLTISSLQPEDFATYYCQQSYREPITFGGGTKVEIK
notes: as for B2
As for B7, the MFI binding came to 4180 MFI in assay [4] and 9680 MFI in assay [3].

B8: anti-Sortilin antibody S-14 (antibody, V domains shown)
VH: QVQLVQSGAEVKKPGASVKVSCKASGYTFTSYYMSWVRQAPGQGLEWMGIINPSGGSTSYAQKFQGRVTMTRDTSTSTVYMELSSLRSEDTAVYYCARDPSGIAAAGPASRYYYGMDVWGQGTTVTVSS
VL: DIQMTQSPSSLSASVGDRVTITCRASQSISSYLNWYQQKPGKAPKLLIYGASSLQSGVPSRFSGSGSGTDFTLTISSLQPEDFATYYCQQHYVGPFTFGGGTKVEIK
On to B8, for which the “Percent reduction … in N2A cells” value in assay [1] is 58.5%. In assay [2], the “Percent reduction … in U251 cells” value was determined as 75.4%.

B9: anti-Sortilin antibody S-81 (antibody, V domains shown)
VH: QLQLQESGPGLVKPSETLSLTCTVSGGSISSSSYYWGWIRQPPGKGLEWIGSIYYSGSTYYNPSLKSRVTISVDTSKNQFSLKLSSVTAADTAVYYCARERWDLGHGMDVWGQGTTVTVSS
VL: not shown
B9: the “Percent reduction … in N2A cells” value in assay [1] stood at 51.3%. For the same molecule, in assay [2], the “Percent reduction … in U251 cells” value was 18.2%.

B10: anti-Sortilin antibody S-55 (antibody, V domains shown)
VH: QVQLQESGPGLVKPSETLSLTCAVSGYSISSGYYWGWIRQPPGKGLEWIGSIYHSGSTYYNPSLKSRVTISVDTSKNQFSLKLSSVTAADTAVYYCARGRPELGWDKYFQHWGQGTLVTVSS
VL: DIQMTQSPSSVSASVGDRVTITCRASQGISRWLAWYQQKPGKAPKLLIYAASSLQSGVPSRFSGSGSGTDFTLTISSLQPEDFATYYCQQANALPTFGGGTKVEIK
As to B10, the “Percent reduction … in N2A cells” value in assay [1] is 67.7%. Besides, in assay [2], the “Percent reduction … in U251 cells” value amounted to 73%.

B11: anti-Sortilin antibody S-51 (antibody, V domains shown)
VH: QVQLVESGGGVVQPGRSLRLSCAASGFTFSSYGMHWVRQAPGKGLEWVAVISYDGSNKYYADSVKGRFTISRDNSKNTLYLQMNSLRAEDTAVYYCAKGLEYYDSSRLYYPYYYYMDVWGKGTTVTVSS
VL: EIVLTQSPATLSLSPGERATLSCRASQSVSSYLAWYQQKPGQAPRLLIYDASKRATGIPARFSGSGSGTDFTLTISSLEPEDFAVYYCQQRSNYPITFGGGTKVEIK
Consider B11, for which the “Percent reduction … in N2A cells” value in assay [1] came to 80.7%. In addition, the “Percent reduction … in U251 cells” value in assay [2] came out at 75.9%.

B12: anti-Sortilin antibody S-26 (antibody, V domains shown)
VH: EVQLVESGGGLVKPGGSLRLSCAASGFTFSSYSMNWVRQAPGKGLEWVSSISSSSSYIYYADSVKGRFTISRDNAKNSLYLQMNSLRAEDTAVYYCARDRLGRGYKWNWFDPWGQGTLVTVSS
VL: DIQMTQSPSSVSASVGDRVTITCRASQGIDSWLAWYQQKPGKAPKLLIYAASSLQSGVPSRFSGSGSGTDFTLTISSLQPEDFATYYCQQGNSLPPITFGGGTKVEIK
Turning to B12, the “Percent reduction … in N2A cells” value in assay [1] was 47.3%. In addition, the “Percent reduction … in U251 cells” value in assay [2] is 17.1%.

B13: anti-Sortilin antibody S-73 (antibody, V domains shown)
VH: QVQLQESGPGLVKPSQTLSLTCTVSGGSISSGTYYWSWIRQHPGKGLEWIGYIYYSGSTYYNPSLKSRVTISVDTSKNQFSLKLSSVTAADTAVYYCARGVGRYRVADYWGQGTLVTVSS
VL: EIVLTQSPATLSLSPGERATLSCRASQSVSSYLAWYQQKPGQAPRLLIYDASNRATGIPARFSGSGSGTDFTLTISSLEPEDFAVYYCQQASVYPPITFGGGTKVEIK
notes: as for B2
In the case of B13, the results for the MFI binding in assay [4] and in assay [3] were 7670 MFI and 8070 MFI, respectively.

B14: anti-Sortilin antibody S-74 (antibody, V domains shown)
VH: QVQLQESGPGLVKPSQTLSLTCTVSGGSISSGTYYWSWIRQHPGKGLEWIGYIYYSGSTYYNPSLKSRVTISVDTSKNQFSLKLSSVTAADTAVYYCARGVGRYRVADYWGQGTLVTVSS
VL: EIVMTQSPATLSLSPGERATLSCRASQSVSSYLAWYQQKPGQAPRLLIYDSSNRATGIPARFSGSGSGTDFTLTISSLEPEDFAVYYCQQETNMPPITFGGGTKVEIK
notes: as for B2
For the molecule B14, the MFI binding in assay [4] is 7300 MFI; in assay [3] it was 9210 MFI.
